Assay results: article PMC2719619, “Efficient, chemoselective synthesis of immunomicelles using single-domain antibodies with a C-terminal thioester” (BMC Biotechnology, 2009)

Experiments:
[1] = biological target: T1, Glutathione-S-transferase from Schistosoma japonicum (Schistosoma japonicum, UniProt P08515 = GST); test: SPR; GST immobilised on a CM5 chip by EDC/NHS (160 RU), 0-500 nM sdAb injected, 25°C, PBS with 0.05% Tween-20, 30 μL/min; steady state responses fitted to a one-site binding model; apparent; conditions: both partners purified
T1 construct: GST of Schistosoma japonicum (printed as 'glutathione-S from Schistosoma japonicum'); recombinant from the vector pGEX-4T-2 in the selection; GST from pGEX-4T-2 would carry some residues of the vector's linker at its C-terminus; also called GST
T1 sequence (P08515 whole entry, looked up): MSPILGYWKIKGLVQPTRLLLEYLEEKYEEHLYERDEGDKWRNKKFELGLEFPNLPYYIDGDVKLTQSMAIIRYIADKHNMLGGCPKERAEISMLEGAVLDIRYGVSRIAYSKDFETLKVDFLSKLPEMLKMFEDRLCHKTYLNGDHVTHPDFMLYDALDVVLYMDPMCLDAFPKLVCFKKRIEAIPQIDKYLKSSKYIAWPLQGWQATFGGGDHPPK

[2] = biological target: T1, Glutathione-S-transferase from …; test: ELISA; conditions: both partners purified

B1: sdAb-aGST-MESNA (llama single-domain antibody against GST with a C-terminal MESNA thioester) (VHH)
VHH: QVQLQDSGGGIVQPGGSLRLSCAGSGFSLDHYAIGWFRQAPGKRRELVASITSGGTIRYADSVKDRFTISRDNAKNRVYLQMNSLKPEDTAVYYCSARAKFSTSYDYWGQGTQVTVSS
notes: llama single-domain antibody from a naive phage display library, clone C11 of vector pHENIX sdAb-α GST C11; A mix of species that differ in how much of the pelB leader is left (LC-MS: calcd. 19632, 19501, 18175, 18062 Da); One conserved disulfide bond; also called sdAb-α GST-MESNA; sdAb-GST; source: E. coli BL21 (DE3), pTXB1, periplasm; purified on a chitin column, cleaved from the intein with …
[1]
  Kd: 116 nM
[2]
  Kd: 77 nM
